In the supplement of paper PMC10126150:
± gives the standard deviation of the averaged measurements.

Test system: ATP
Experiment: switch fluorescence ratio, 500 uM ATP over buffer (Cy3 cluster intensity, sum of 5 cycles each) (fold (ratio)); higher = stronger signal-on switching upon ATP binding; sequences stand for … in TCGTCGGCAGCGTCAGATGTGTATAAGAGACAGTTTTTTTTTTTTTTTTTTTTTTTTT…TC
Details: aptamer strand: ATP DNA aptamer (quencher-CACCTGGGGGAGTATTGCGGAGGAAGG + anchor), 100 nM annealed; ATP concentration: 500 uM
Outline: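 The fluorescence ratio divides summed target-cycle Cy3 intensity by summed buffer-cycle Cy3 intensity for each cluster and is averaged per switch-domain sequence. Cy3-labelled switching-strand clusters on a modified Illumina MiSeq flow-cell were annealed to 100 nM quencher-labelled ATP aptamer, then imaged in selection buffer and again after 15 min with 500 uM ATP at 22 °C. Five such cycles were run, with NaOH stripping and re-annealing between them, and clusters outside 100-1000 RFU were excluded.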
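Note: ATP exposure 15 min at 22 °C before imaging.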

Sequence	switch fluorescence ratio
AGCTTTGGTA	1.016 ± 0.0026
TTTTGGTACT	0.984 ± 0.027
CTAATGGGTG	1.02 ± 0.02
ATCAGGGGGC	1.03 ± 0.036
CCTAGGGGGG	1.17 ± 0.23
TAAACGAAGC	1.06 ± 0.039
CGTTAATTAG	1.02 ± 0.042
CGGGAACTGG	0.97 ± 0.023
GGGGGACCGT	1.01 ± 0.024
CGAGGGACGG	0.992 ± 0.024
CTGATAAAGG	0.969 ± 0.048
CGACCTTGCT	1.55 ± 0.26
ATCGGGTGTA	0.994 ± 0.013
ACGTATGGGC	1.082 ± 0.0027
GGGGTACGTG	1 ± 0.029
GCCCTATCAT	0.981 ± 0.027
GGTTTCAAAA	0.99668 ± 0.00038
ATTGTTATAT	1 ± 0.03
GGGGAAAGGT	0.989 ± 0.029
GGGAGTATGT	0.977 ± 0.054
AAAGCGGGGA	1.04 ± 0.011
TGCATTTCAG	1 ± 0.025
GACCCTTAGA	1.01 ± 0.011

Sequence	switch fluorescence ratio
TCGTAGGCAT	1.004 ± 0.0036
ATGATGTGAG	1.01 ± 0.051
AAATTTTTGG	1.01 ± 0.045
GCTTAACTTC	0.982 ± 0.039
CGGACCATTC	1.27 ± 0.032
CGGGTTGTAG	1 ± 0.036
CGAATTTTTT	0.9539 ± 0.0064
ATGTGTCTGG	0.998 ± 0.011
ACCGTTACTT	1.24 ± 0.065
ATATCCCCCA	1.15 ± 0.11
GTTTTTGGGT	0.984 ± 0.033
CTGGGGGGCC	1.01 ± 0.038
CGATTTTGAG	0.9768 ± 0.0076
TGTTAGATAG	1 ± 0.025
ATGTATTATG	0.956 ± 0.026
TTCATATGTT	0.981 ± 0.012
ACCAAATACT	1.26 ± 0.014
CGGACCATAT	1.11 ± 0.017
GTAGGGGACA	1.06 ± 0.012
TTCCGAGGG	1.102 ± 0.011
AGGTTTGTGA	0.995 ± 0.029
TGCAGGGGCT	1.15 ± 0.22
TAGGAGATTT	0.998 ± 0.03

Sequence	switch fluorescence ratio
GGGTAAATGG	1.02 ± 0.034
TTACGGGCGC	0.9684 ± 0.0086
TGCGTTATCG	1.025 ± 0.0072
ACCGTTCACG	1.02 ± 0.031
TCTTGGATGT	1.0101 ± 5.3e-05
AGCAATTGTG	1.04 ± 0.029
TGACTCGAGT	1.01 ± 0.012
TCGTACGTTG	1.01 ± 0.022
GTGGGGGTGC	0.987 ± 0.033
TAGGTAATAT	1.02 ± 0.036
TTGGCGCTGG	0.993 ± 0.026
CATATTGGTC	1 ± 0.062
AAGTTTATGC	0.977 ± 0.025
AGGTAATATG	0.9867 ± 0.0081
TGTTTTCGGA	1.01 ± 0.012
GCGTTCTCGT	0.989 ± 0.018
GTAAGGAAGG	0.989 ± 0.012
TTGGTTTTT	0.993 ± 0.019
AGGGTCGATG	1.07 ± 0.073
GAGGTCTGGG	0.978 ± 0.015
GTGTTTGTGT	0.983 ± 0.028
TTGCGGTTGA	1.0313 ± 0.00057
GATATGGGGA	0.994 ± 0.044

Sequence	switch fluorescence ratio
AGGGTATGTA	1 ± 0.015
AAGAGTCTT	0.963 ± 0.042
AGTCCTTGGA	0.99 ± 0.069
GCTGGTTAGT	1 ± 0.014
GTTCCGCCTG	1.094 ± 0.0043
GGTCTCCGGC	1.01 ± 0.065
CGGGTTGGTT	1.032 ± 0.0056
CCATGTGTTG	1.03 ± 0.043
CCGTTTTGAA	0.981 ± 0.057
CAGGTATTCA	1.0177 ± 8.3e-05
GAGTACCTGG	1.01 ± 0.04
TTAACTGGGA	0.998 ± 0.026
AATGGAAATC	1.003 ± 0.0086
TCATTATGGA	0.989 ± 0.014
GGGCAGGATG	1.05 ± 0.039
GCACTCGGTG	1.01 ± 0.048
GCTCAATTTA	0.9689 ± 0.0083
TCTTCGGGAA	1.09 ± 0.06
TTCGGAGTTT	1.01 ± 0.12
TTTGTTGTGG	1.01 ± 0.048
CATCAGGATG	1.01 ± 0.031
TAGGTTGTCA	1.04 ± 0.024
TAGTTCTGAG	0.998 ± 0.006

Sequence	switch fluorescence ratio
ATGGGATAAG	0.998 ± 0.029
GTTTACTTAT	1.037 ± 0.0024
GCAACCCGGT	1.028 ± 0.0037
TACAGGCTGA	0.9858 ± 0.0046
GAGGGCGGAC	1.05 ± 0.19
CATCGGCTCA	1.12 ± 0.067
GGGTACTGGT	1 ± 0.026
CGGCCGGTTG	1 ± 0.019
TCAGTCATTT	1.003 ± 0.0066
CCACAGCCGG	1.23 ± 0.13
ATCTAGGTAC	1.06 ± 0.058
TCCGGGTTTG	1.02 ± 0.037
CGAGGGTTAT	1.005 ± 0.0054
AAGAGACAGA	1.25 ± 0.066
GCGCGGGGGT	1.08 ± 0.032
ACGTATTTGT	1.11 ± 0.013
TATTTAATAG	1.004 ± 0.0028
GCTCAAGCGA	1.464 ± 0.0035
AACTCTCGGG	1 ± 0.014
GAGTTTGTCA	0.9917 ± 0.0087
GCGCATATTG	1.051 ± 0.0021
GATTGTTTTA	1.02 ± 0.016
ATCGGTTTGG	0.996 ± 0.0095

Sequence	switch fluorescence ratio
GTTAAAGCAT	1.01 ± 0.03
TATCGGTTCG	0.9992 ± 0.0076
AGAGTATGG	0.965 ± 0.035
GAAGAAGGTT	0.99516 ± 0.00083
TCACATGTCG	1.02 ± 0.053
CTGGAAATTG	1.03 ± 0.036
CGTAGAGAAA	0.991 ± 0.044
TGGATTAGTT	0.96734 ± 0.00041
TGCTAACTCG	1 ± 0.018
TTTAAGCATT	1.19 ± 0.066
GAGATCGGTA	1.006 ± 0.0069
ATATTAAGGC	0.983 ± 0.017
CCATGTTGAG	0.997 ± 0.0086
TAAAATTGTT	0.991 ± 0.052
CGATGGGCAG	1.04 ± 0.061
GAGTCCATTG	1.02 ± 0.026
CGGCGAAGAT	1.01 ± 0.025
GTTCTGAGGT	1 ± 0.0014
GGATTGCAAG	0.998 ± 0.013
GAACGTGGTA	0.9936 ± 0.0038
AAGGGGTCGG	1 ± 0.036
ATTTATACTG	1.05 ± 0.052
TTTAGAAAGG	1 ± 0.025

Sequence	switch fluorescence ratio
AGGGGCGGAG	0.9743 ± 0.0035
TGGGATCGAG	0.9719 ± 0.0032
CGGAGGGGGA	0.973 ± 0.019
ACGCTGCTAC	4.48 ± 0.3
TTTATAGTTA	0.979 ± 0.039
CGAGAGGAGC	0.998 ± 0.073
AAGGTTACGT	1.022 ± 0.0072
CTCTAATCGG	1.018 ± 0.0097
GCGTATATAA	1.04 ± 0.044
ACGCCTTATT	1.03 ± 0.02
AGGTTGGAGT	1.02 ± 0.04
AGAGTATTTG	0.994 ± 0.014
TAAGCTTGTA	1.01 ± 0.022
TTCACGGTTC	1.02 ± 0.027
GGTGTATAA	0.995 ± 0.032
TTGATGCCGG	1.05 ± 0.049
ACTGGCTCCT	1.02 ± 0.056
ACGGTCGCGT	1 ± 0.012
AAAGAGACAG	0.993 ± 0.0046
